According to publication PMC8208975, “Extracellular mRNA transported to the nucleus exerts translation-independent function”:

T1: ZC3H12D short isoform (hZC36) (Homo sapiens, UniProt A2A288-4 1-321)
T1 sequence: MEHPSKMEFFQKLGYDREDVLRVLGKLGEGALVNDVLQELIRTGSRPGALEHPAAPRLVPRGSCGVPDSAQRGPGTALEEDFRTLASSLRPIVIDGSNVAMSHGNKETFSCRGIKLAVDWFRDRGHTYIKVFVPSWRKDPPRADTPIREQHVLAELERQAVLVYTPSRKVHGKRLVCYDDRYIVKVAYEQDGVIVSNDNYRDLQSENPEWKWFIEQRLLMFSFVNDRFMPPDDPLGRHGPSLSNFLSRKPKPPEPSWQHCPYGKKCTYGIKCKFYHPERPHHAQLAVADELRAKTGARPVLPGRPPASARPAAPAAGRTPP


Key:
[1] = system: ZC3H12D short isoform (hZC36), Alexa Fluor 488 labeled (Homo sapiens); experiment: FCS; details: 1 nM protein, 10 nM RNA; EMSA: 100 mM HEPES pH 7.3, 200 mM KCl, 10 mM MgCl2, 10 mM DTT, glycerol, tRNA; FCS: protein diluted in 50 mM HEPES pH 7.4, 100 mM NaCl; temperature not given
[2] = biological target: T1, ZC3H12D short isoform (hZC36); experiment: EMSA; tRNA; very rough estimate by authors; EMSA: 100 mM HEPES pH 7.3, 200 mM KCl, 10 mM MgCl2, 10 mM DTT, glycerol, tRNA; FCS: protein diluted in 50 mM HEPES pH 7.4, 100 mM NaCl; temperature not given; details: protein: recombinant; tags: C-terminal myc-FLAG (pCMV6-Entry)

Row | Molecule | Kd [1] | Kd [2]
1 | bactin-mRNA | 1 nM | 
2 | IL1b-mRNA full length | 1 nM | 
3 | UAUUUAUUUAUGUAUUUAUUGAUUGGUUGAUCUAUUUAAGUUGAUUCAAG (ssRNA) [EMSA probe 5] |  | ~31.6 nM
